T1: human ADAM8 (human) (UniProt P78325)
T1 sequence: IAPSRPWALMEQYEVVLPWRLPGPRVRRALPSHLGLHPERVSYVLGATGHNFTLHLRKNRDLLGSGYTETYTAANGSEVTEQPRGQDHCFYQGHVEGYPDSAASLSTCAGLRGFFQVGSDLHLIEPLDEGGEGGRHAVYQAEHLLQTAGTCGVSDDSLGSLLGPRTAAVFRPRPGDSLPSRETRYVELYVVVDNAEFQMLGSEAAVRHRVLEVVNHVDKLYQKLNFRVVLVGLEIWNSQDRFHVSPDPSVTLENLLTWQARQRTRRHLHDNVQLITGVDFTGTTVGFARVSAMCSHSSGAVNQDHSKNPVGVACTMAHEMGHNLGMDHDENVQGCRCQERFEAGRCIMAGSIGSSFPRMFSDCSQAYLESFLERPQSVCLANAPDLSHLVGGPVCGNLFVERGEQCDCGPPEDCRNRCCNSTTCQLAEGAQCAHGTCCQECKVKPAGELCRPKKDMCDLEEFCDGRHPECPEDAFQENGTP

B1: ADAM8 prodomain peptide SEQ ID NO: 4 (peptide, not shown: small tags and cut ends)
chain: MIAPSRPWALMEQYEVVLPRRLPGPRVRAALPSHLGLHPERVSYVLGATGHNFTLHLRKNRDLLGSGYTETYTAANGSEVTEQPRGQDHSFYQGHVEGYPDSAASLSTSAGLRGFFQVGSDLHLIEPLDEGGEGGRHAVYQAEHLLQTAGTSGVSDDSLGSLLGPRTAAVFRPRPGDSLPS
B2: ADAM8 prodomain peptide SEQ ID NO: 16 (peptide, not shown: small tags and cut ends)
chain: MIAPSRPWALMEQYEVVLPRRLPGPRVRRALPSHLGLHPERVSYVLGATGHNFTLHLRKNRDLLGSGYTETYTAANGSEVTEQPRGQDHCLYQGHVEGYPDSAASLSTCAGLRGFFQVGSDLHLIEPLDEGGEGGRHAVYQAEHLLQTAGTCGVSDDSLGSLLGPRTAAVFRPRPGDSLPS
B3: SEQ ID NO: 17 (Pegylated on N-terminus) (peptide, part only; not given: added cysteine residues and His tag, not shown: small tags and cut ends)
chain, part: MIAPSRPWALMEQYEVVLPWRLPGPKVRKALPSHLGLHPERVSYVLGATGHNFTLHLRKNRDLLGSGYTETYTAANGSEVTEQPRGQDHSFYQGHVEGYPDSAASLSTSAGLRGFFQVGSDLHLIEPLDEGGEGGRHAVYQAEHLLQTAGTSGVSDDSLGSLLGPRTAAVFRPRPGDSLPS
modifications: 5 kDa maleimide PEG on an introduced cysteine near the N-terminus
B4: SEQ ID NO: 15 (pegylated at C-terminus) (peptide, part only; not given: added cysteine residues and His tag, not shown: small tags and cut ends)
chain, part: MIAPSRPWALMEQYEVVLPRRLPGPRVRGALPSHLGLHPERVSYVLGATGHNFTLHLRKNRDLLGSGYTETYTAANGSEVTEQPRGQDHSFYQGHVEGYPDSAASLSTSAGLRGFFQVGSDLHLIEPLDEGGEGGRHAVYQAEHLLQTAGTSGVSDDSLGSLLGPRTAAVFRPRPGDSLPS
modifications: 5 kDa maleimide PEG on an added cysteine near the C-terminus
B5: wild type human ADAM8 prodomain peptide SEQ ID NO: 2 (peptide, not shown: small tags and cut ends)
chain: MIAPSRPWALMEQYEVVLPWRLPGPRVRRALPSHLGLHPERVSYVLGATGHNFTLHLRKNRDLLGSGYTETYTAANGSEVTEQPRGQDHCFYQGHVEGYPDSAASLSTCAGLRGFFQVGSDLHLIEPLDEGGEGGRHAVYQAEHLLQTAGTCGVSDDSLGSLLGPRTAAVFRPRPGDSLPS
B6: SEQ ID NO: 14 (pegylated on 3 cysteines) (peptide, not shown: small tags and cut ends)
chain: MIAPSRPWALMEQYEVVLPRRLPGPRVRRALPSHLGLHPERVSYVLGATGHNFTLHLRKNRDLLGSGYTETYTAANGSEVTEQPRGQDHCFYQGHVEGYPDSAASLSTCAGLRGFFQVGSDLHLIEPLDEGGEGGRHAVYQAEHLLQTAGTCGVSDDSLGSLLGPRTAAVFRPRPGDSLPS
modifications: 2 kDa maleimide PEG on all three cysteines (cysteines 105, 124 and 167 of SEQ ID NO: 1 numbering; positions 90, 109 and 152 of SEQ ID NO: 14)
B7: ADAM8 prodomain peptide SEQ ID NO: 17 (peptide, not shown: small tags and cut ends)
chain: MIAPSRPWALMEQYEVVLPWRLPGPKVRKALPSHLGLHPERVSYVLGATGHNFTLHLRKNRDLLGSGYTETYTAANGSEVTEQPRGQDHSFYQGHVEGYPDSAASLSTSAGLRGFFQVGSDLHLIEPLDEGGEGGRHAVYQAEHLLQTAGTSGVSDDSLGSLLGPRTAAVFRPRPGDSLPS
B8: ADAM8 prodomain peptide SEQ ID NO: 14 (peptide, not shown: small tags and cut ends)
chain: MIAPSRPWALMEQYEVVLPRRLPGPRVRRALPSHLGLHPERVSYVLGATGHNFTLHLRKNRDLLGSGYTETYTAANGSEVTEQPRGQDHCFYQGHVEGYPDSAASLSTCAGLRGFFQVGSDLHLIEPLDEGGEGGRHAVYQAEHLLQTAGTCGVSDDSLGSLLGPRTAAVFRPRPGDSLPS
B9: ADAM8 prodomain peptide SEQ ID NO: 15 (peptide, not shown: small tags and cut ends)
chain: MIAPSRPWALMEQYEVVLPRRLPGPRVRGALPSHLGLHPERVSYVLGATGHNFTLHLRKNRDLLGSGYTETYTAANGSEVTEQPRGQDHSFYQGHVEGYPDSAASLSTSAGLRGFFQVGSDLHLIEPLDEGGEGGRHAVYQAEHLLQTAGTSGVSDDSLGSLLGPRTAAVFRPRPGDSLPS

Where “and” joins values, the source holds several entries; their conditions need not be identical. Equal entries are not always repeated.

Nine molecules from US20220213169A1 can be followed below.

The target in this assay is T1, human ADAM8 (human). The experiment in a line: cell-based or functional assay.
As to B1, the percent inhibition of ADAM8 (cleavage of fluorescence energy transfer substrate PEPDAB064 or PEPDAB013) (% inhibition at 5 uM) was 40. With B2, the IC50 for inhibition of ADAM8 (cleavage of fluorescence energy transfer substrate PEPDAB064 or PEPDAB013) came to 0.4 µM. B3 displayed an IC50 for inhibition of ADAM8 (cleavage of fluorescence energy transfer substrate PEPDAB064 or PEPDAB013) of 24 µM.

As to B4, the IC50 for inhibition of ADAM8 (cleavage of fluorescence energy transfer substrate PEPDAB064 or PEPDAB013) was 1.8 µM and 3 µM. On the same count and under the same terms, as for B5, the figure is 2.8 µM and 2.3 µM; as for B6, 2.7 µM and 2.3 µM. B7 had a percent inhibition of ADAM8 (cleavage of fluorescence energy transfer substrate PEPDAB064 or PEPDAB013) (% inhibition at 4.8 uM) of 51. B8: the IC50 for inhibition of ADAM8 (cleavage of fluorescence energy transfer substrate PEPDAB064 or PEPDAB013) was 1.4 µM and 2.3 µM. For the molecule B9, the percent inhibition of ADAM8 (cleavage of fluorescence energy transfer substrate PEPDAB064 or PEPDAB013) (% inhibition at 4.8 uM) was 45.
